According to patent publication US20250262210A1 (TRUSTEES OF COLUMBIA UNIVERSITY IN THE CITY OF NEW YORK, published 2025):

Assays:
ANKRD52 = target: T1, ANKRD52 (human, UniProt Q8NB46 1-1076); experiment: IP/MS, LZTR1 wild type-FLAG, U87
T1 sequence (looked up): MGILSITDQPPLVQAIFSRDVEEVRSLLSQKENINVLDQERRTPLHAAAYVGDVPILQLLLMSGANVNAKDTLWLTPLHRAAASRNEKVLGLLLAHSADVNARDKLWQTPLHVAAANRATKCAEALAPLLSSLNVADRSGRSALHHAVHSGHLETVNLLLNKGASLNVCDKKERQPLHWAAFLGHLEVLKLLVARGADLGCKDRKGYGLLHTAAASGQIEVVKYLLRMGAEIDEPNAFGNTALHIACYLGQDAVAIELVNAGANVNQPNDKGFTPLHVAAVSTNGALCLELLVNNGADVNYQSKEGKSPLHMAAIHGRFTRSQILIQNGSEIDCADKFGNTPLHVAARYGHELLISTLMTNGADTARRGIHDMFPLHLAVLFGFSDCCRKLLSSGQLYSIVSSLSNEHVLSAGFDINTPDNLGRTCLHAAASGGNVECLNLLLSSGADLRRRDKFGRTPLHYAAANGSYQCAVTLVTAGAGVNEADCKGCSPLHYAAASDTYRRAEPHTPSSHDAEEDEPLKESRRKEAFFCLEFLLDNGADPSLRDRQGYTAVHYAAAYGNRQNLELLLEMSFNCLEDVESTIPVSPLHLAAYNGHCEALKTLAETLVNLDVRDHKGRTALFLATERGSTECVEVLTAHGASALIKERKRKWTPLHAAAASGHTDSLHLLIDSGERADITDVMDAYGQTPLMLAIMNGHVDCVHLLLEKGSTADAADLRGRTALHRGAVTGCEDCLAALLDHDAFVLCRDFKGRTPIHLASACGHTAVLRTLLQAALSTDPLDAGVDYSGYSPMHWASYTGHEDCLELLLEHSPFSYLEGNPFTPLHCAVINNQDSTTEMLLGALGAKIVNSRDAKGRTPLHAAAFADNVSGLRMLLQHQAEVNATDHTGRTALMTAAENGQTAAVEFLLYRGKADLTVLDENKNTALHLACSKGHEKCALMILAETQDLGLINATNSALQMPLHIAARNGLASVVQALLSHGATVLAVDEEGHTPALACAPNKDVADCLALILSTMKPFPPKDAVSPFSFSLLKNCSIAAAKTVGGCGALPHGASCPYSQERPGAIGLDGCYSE
Procedure, shortened: (§1)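 Read-out: spectral counts from LC-MS/MS (Orbitrap Fusion) after MaxQuant identification. Variable modifications were Met oxidation, protein N-terminal acetylation and N/Q deamidation.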

FHOD1 = target: T2, FHOD1 (human, UniProt Q9Y613 2-1164); experiment: IP/MS, LZTR1 wild type-FLAG, U87
T2 sequence (looked up): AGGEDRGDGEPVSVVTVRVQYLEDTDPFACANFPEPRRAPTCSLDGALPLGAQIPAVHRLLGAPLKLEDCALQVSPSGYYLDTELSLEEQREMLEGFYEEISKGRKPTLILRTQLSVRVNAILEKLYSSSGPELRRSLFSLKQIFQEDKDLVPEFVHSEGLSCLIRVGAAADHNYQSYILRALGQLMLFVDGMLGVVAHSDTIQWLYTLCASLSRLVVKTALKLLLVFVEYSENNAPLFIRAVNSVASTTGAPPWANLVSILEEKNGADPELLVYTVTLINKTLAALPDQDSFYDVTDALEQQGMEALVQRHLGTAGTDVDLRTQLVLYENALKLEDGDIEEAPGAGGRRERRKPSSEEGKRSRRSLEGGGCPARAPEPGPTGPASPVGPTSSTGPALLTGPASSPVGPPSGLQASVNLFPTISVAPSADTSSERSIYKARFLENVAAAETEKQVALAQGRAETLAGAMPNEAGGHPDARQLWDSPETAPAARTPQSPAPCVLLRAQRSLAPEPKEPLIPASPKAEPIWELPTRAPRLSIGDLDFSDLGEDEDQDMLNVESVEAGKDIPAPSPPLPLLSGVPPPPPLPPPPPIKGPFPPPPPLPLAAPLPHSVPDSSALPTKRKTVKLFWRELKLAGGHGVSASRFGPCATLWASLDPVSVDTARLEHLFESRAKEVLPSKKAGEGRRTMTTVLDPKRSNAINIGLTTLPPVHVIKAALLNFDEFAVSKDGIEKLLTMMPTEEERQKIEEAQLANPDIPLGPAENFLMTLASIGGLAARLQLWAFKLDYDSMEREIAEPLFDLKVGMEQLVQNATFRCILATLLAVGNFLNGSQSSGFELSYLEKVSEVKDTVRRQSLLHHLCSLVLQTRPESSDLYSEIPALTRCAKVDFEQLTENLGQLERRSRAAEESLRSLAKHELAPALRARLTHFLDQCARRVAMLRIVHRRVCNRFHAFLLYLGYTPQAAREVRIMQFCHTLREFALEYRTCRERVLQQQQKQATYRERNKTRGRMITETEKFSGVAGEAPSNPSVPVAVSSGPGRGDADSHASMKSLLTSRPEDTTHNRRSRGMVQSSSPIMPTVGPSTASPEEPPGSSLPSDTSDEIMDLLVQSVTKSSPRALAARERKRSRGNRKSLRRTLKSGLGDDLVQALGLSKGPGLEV
Procedure, shortened: as §1

binding result (ANKRD52): binds
binding result (FHOD1): binds
B1: LZTR1-FLAG (other, human, UniProt Q8N653 1-840, looked up)
chain: MAGPGSTGGQIGAAALAGGARSKVAPSVDFDHSCSDSVEYLTLNFGPFETVHRWRRLPPCDEFVGARRSKHTVVAYKDAIYVFGGDNGKTMLNDLLRFDVKDCSWCRAFTTGTPPAPRYHHSAVVYGSSMFVFGGYTGDIYSNSNLKNKNDLFEYKFATGQWTEWKIEGRLPVARSAHGATVYSDKLWIFAGYDGNARLNDMWTIGLQDRELTCWEEVAQSGEIPPSCCNFPVAVCRDKMFVFSGQSGAKITNNLFQFEFKDKTWTRIPTEHLLRGSPPPPQRRYGHTMVAFDRHLYVFGGAADNTLPNELHCYDVDFQTWEVVQPSSDSEVGGAEVPERACASEEVPTLTYEERVGFKKSRDVFGLDFGTTSAKQPTQPASELPSGRLFHAAAVISDAMYIFGGTVDNNIRSGEMYRFQFSCYPKCTLHEDYGRLWESRQFCDVEFVLGEKEECVQGHVAIVTARSRWLRRKITQARERLAQKLEQEAAPVPREAPGVAAGGARPPLLHVAIREAEARPFEVLMQFLYTDKIKYPRKGHVEDVLLIMDVYKLALSFQLCRLEQLCRQYIEASVDLQNVLVVCESAARLQLSQLKEHCLNFVVKESHFNQVIMMKEFERLSSPLIVEIVRRKQQPPPRTPLDQPVDIGTSLIQDMKAYLEGAGAEFCDITLLLDGHPRPAHKAILAARSSYFEAMFRSFMPEDGQVNISIGEMVPSRQAFESMLRYIYYGEVNMPPEDSLYLFAAPYYYGFYNNRLQAYCKQNLEMNVTVQNVLQILEAADKTQALDMKRHCLHIIVHQFTKVSKLPTLRSLSQQLLLDIIDSLASHISDKQCAELGADI
notes: Expressed in HEK 293T, HeLa or U87 cells; used as cell lysate; also called LZTR1 wild type-FLAG; LZTR1 WT; not shown: FLAG tag at the C-terminus
